Source: the DeepSol protein solubility set

Assay: soluble on expression in E. coli; label from the status in PepcDB or PDB records

Row | Sequence | soluble on expression in E. coli
1 | GHMASGLTIYFKKPDSWGTPHLYYYDTNPKVDEPTWSEAPEMEHYEGDWYTHTIEGVESVRLLFKDRGTNQWPGPGEPGFFRDQDGWFDGEWHVDRPG | soluble
2 | GHMEDFWVQYGDEMLPVIGDFPRKGDYLPSFMLVDDQKHDAALESFSHTPKLIVTLLSVDEDEHAGLLLLRETRRFLDSWPHLKLIVITVDSPSSLARARHEHGLPNIALLSTLRGRDFHKRYGVLITEYPLSGYTSPAIILADAANVVHYSERLANTRDFFDFDAIEKLLQEGEQQAMAAEREAAEARQEQDAEREKGTERLLEKAKLIQDQLNRNGDPGRGS | soluble
3 | GHMGLEPYEISTLFEQRQAMLQSIKEGVVAVDDRGEVTLINDAAQELLNYRKSQDDEKLSTLSHSWSQVVDVSEVLRDGTPRRDEEITIKDRLLLINTVPVRSNGVIIGAISTFRDKT | soluble
4 | GHMQTQGLAKDAWEIPRESLRLEVKLGQGCFGEVWMGTWNGTTRVAIKTLKPGTMSPEAFLQEAQVMKKLRHEKLVQLYAVVSEEPIYIVTEYMSKGCLLDFLKGEMGKYLRLPQLVDMAAQIASGMAYVERMNYVHRDLRAANILVGENLVCKVADFGLARLIEDNEYTARQGAKFPIKWTAPEAALYGRFTIKSDVWSFGILLTELTTKGRVPYPGMVNREVLDQVERGYRMPCPPECPESLHDLMCQCWRKDPEERPTFEYLQAFLEDYFTSTEPQYQPGENL | soluble
5 | GHPTLKTPESVTGTWKGDVKIQCIYDPLRGYRQVLVKWLVRHGSDSVTIFLRDSTGDHIQQAKYRGRLKVSHKVPGDVSLQINTLQMDDRNHYTCEVTWQTPDGNQVIRDKIIELRVRK | soluble
6 | GHVETIKNTFLNPKSNKVLVVAHRGNWRSAPENSTAAIDSAIAMKVDIVEIDIQKTKDGQLILMHDNTLDRTTTGKGEIKNWTLADIKKLKLKDKDGKVTNYVVPTLEEALLTAKGKIMVNLDKAYDIFDDVYAILEKTETQNQVIMKGGQPIETVKREFGSYLDKVLYMPVIDLGNKEAEKIITDYLKELRPAAFEIIYSDPKNPLPPKIKQLLFKKSLIWYNTLWGSLAGNHDDNLALTDPEKSYGYLIEQLGARILQTDQPAYLLDYLRKKGWHN | soluble
7 | GIRSLDGQEDEFDANEQEEIEAKRECALRGRVSVAITPAQSREHGQGDQHGGDRSTHTDDPQAGPWHSAAPAQLSDSIRTCIDAIVDRYVTRRDADPVAKRHALAAALVELRAVGVSHPAVAPLTATIWRLMREHLRAYDKATAAENLLALRTRLLELMPSELEPVPALRNFHLLLPLILLNAEKPRRRVDRTHAITRLNTLLIEQPQQAAQEVRP | not soluble
8 | GIVPYGGNLTVLDLVQKYIGQKKGVRHNTQANYDFVINIIKKEEFGTRRIDKIKLSDAKAWFIKLQADGRGYSSIHSVRGIVRPAFQMAVEDDLLRKNPFEFQLCTVVVNDSVTRQAITKEQEELFLEFIRNDDHYSKYYNGMFILFKTGLRISEFCGLTVKDIDLQERKINVNHQLQRTRGMQYVIEDTKTSSGTRMLPMTDEVYECFEQIVKNRKKVRVEPIVDGYSRFLFLDKKDMPEVALHWEKHFQWALGKYNRTHEEQMPKITPHVCRHTYCSNMAKAGMNPKALQYLMGHSDIGVTLNVYTHLGLIDAKEEMNRIAKLA | not soluble
9 | GKPSWLGGGSTQPAQTIPWGIERVKAPSVWSITDGSVSVIQVAVLDTGVDYDHPDLAANIAWCVSTLRGKVSTKLRDCADQNGHGTHVIGTIAALNNDIGVVGVAPGVQIYSVRVLDARGSGSYSDIAIGIEQAILGPDGVADKDGDGIIAGDPDDDAAEVISMSLGGPADDSYLYDMIIQAYNAGIVIVAASGNEGAPSPSYPAAYPEVIAVGAIDSNDNIASFSNRQPEVSAPGVDILSTYPDDSYETLMGTAMATPHVSGVVALIQAAYYQKYGKILPVGTFDDISKNTVRGILHITADDLGPTGWDADYGYGVVRAALAVQAALG | soluble
10 | GKVAKPVLLHQSSTEVSSTNQVEVPDTTQSSPVSISSGLNSDPDMVDSPVVTGVSGMAVASVMGSLSQSATVFMSEVTNEAVYTMSPTAGPNHHLLSPDASQGLVLAVSSDGHKFAFPTTGSSESLSMLPTNVSEELVLSTTLDGGRKIPETTMNFDPDCFLNNPKQGQTYGGGGLKAEMVSSNIRHSPPGERSFSFTTVLTKEIKTEDTSFEQQMAKEAYSSSAAAVAASSLTLTAGSSLLPSGGGLSPSTTLEQMDFSAIDSNKDYTSSFSQTGHSPHIHQTPSPSFFLQDASKPLPVEQNTHSSLSDSGGTFVMPTVKTEASSQTSSCSGHVETRIESTSSLHLMQFQANFQAMTAEGEVTMETSQAAEGSEVLLKSGELQACSSEHYLQPETNGVIRSAGGVPILPGNVVQGLYPVAQPSLGNASNMELSLDHFDISFSNQFSDLINDFISVEGGSSTIYGHQLVSGDSTALSQSEDGARAPFTQAEMCLPCCSPQQGSLQLSSSEGGASTMAYMHVAEVVSAASAQGTLGMLQQSGRVFMVTDYSPEWSYPEGGVKVLITGPWQEASNNYSCLFDQISVPASLIQPGVLRCYCPAHDTGLVTLQVAFNNQIISNSVVFEYKARALPTLPSSQHDWLSLDDNQFRMSILERLEQMERRMAEMTGSQQHKQASGGGSSGGGSGSGNGGSQAQCASGTGALGSCFESRVVVVCEKMMSRACWAKSKHLIHSKTFRGMTLLHLAAAQGYATLIQTLIKWRTKHADSIDLELEVDPLNVDHFSCTPLMWACALGHLEAAVVLYKWDRRAISIPDSLGRLPLGIARSRGHVKLAECLEHLQRDEQAQLGQNPRIHCPASEEPSTESWMAQWHSEAISSPEIPKGVTVIASTNPELRRPRSEPSNYYSSESHKDYPAPKKHKLNPEYFQTRQEKLLPTALSLEEPNIRKQSPSSKQSVPETLSPSEGVRDFSRELSPPTPETAAFQASGSQPVGKWNSKDLYIGVSTVQVTGNPKGTSVGKEAAPSQVRPREPMSVLMMANREVVNTELGSYRDSAENEECGQPMDDIQVNMMTLAEHIIEATPDRIKQENFVPMESSGLERTDPATISSTMSWLASYLADADCLPSAAQIRSAYNEPLTPSSNTSLSPVGSPVSEIAFEKPNLPSAADWSEFLSASTSEKVENEFAQLTLSDHEQRELYEAARLVQTAFRKYKGRPLREQQEVAAAVIQRCYRKYKQLTWIALKYALYKKMTQAAILIQSKFRSYYEQKKFQQSRRAAVLIQKYYRSYKKCGKRRQARRTAVIVQQKLRSSLLTKKQDQAARKIMRFLRRCRHSPLVDHRLYKRSERIEKGQGT | soluble
11 | GLIIGPEEDYDPGYFNNESDIIFQDLEKLKSHPAYLVVFLRYILSQADPGPLLFYLCSEVYQQTNPKDSRSLGKDIWNIFLEKNAPLRVKIPEMLQAEIDLRLRNNEDPRNVLCEAQEAVMLEIQEQINDYRSKRTLGLGSLYGENDLLGLDGDPLRERQMAEKQLAALGDILSKYEEDRSAPMDFAVNTFMSHAGIRLRESR | soluble
12 | GMADAPIDIFQSILSRKSIRAFTDQPVTQETIREILKLAARAPSGTNLQPWQVIVLTGKILQKVGQELSQLVLSGIKGEREYHYYPRQWREPYLSRRRKVGLDLYKSLGIQKGDQEKMLHQKAKNFLFYGAPVGLLFTIDHDMEMGSWLDLGMFMQTIMLAARGFGLDTCAQAAFADYHKQIRSLLSVPSDRHIICGMALGYRDMNAPENNFETEREPIDNFVHFIKSYP | soluble
13 | GMDPKHGNLFADVPVGAPDEIFQPLLERKGLKIERIISNGQASPPGFWYDSPQDEWVMVVSGSAGIECEGDTAPRVMRPGDWLHVPAHCRHRVAWTDGGEPTVWLAVHCDAA | soluble
14 | GMEVNQPDIVAQVQAAFVEYERALVENDIEAMNALFWHTPETVRYGIAEVQHGGEAIRAWRERCEPVPKSRKLHRTVVTTFGTDFATVSTEFTSDATPLLGRQMQTWARLSPADGWKIVAAHVSLIAMP | soluble
15 | GMGRILREGAGWRLGWDETAHRYPGLVGTTDWAVELTAAEMADFCRLVQQLAETIAAIAPELMPEERLQIEAESALLWLEAEGFADAYELRLILASDRRVEACWPAAAVPALVAATHTLKGF | soluble
16 | GMIYSKVENFINENKQNAIFTEGASHENIGRIEENLQCDLPNSYKWFLEKYGAGGLFGVLVLGYNFDHASVVNRTNEYKEHYGLTDGLVVIEDVDYFAYCLDTNKMKDGECPVVEWDRVIGYQDTVADSFIEFFYNKIQEAKDDWDEDEDWDD | soluble
17 | GMLESTKQFLKKYNINDRVLKLYETAMNDIQNQFKILDDIREFNQLKVLNAFQEERISEAHFTNSSGYGYGDIGRDSLDAVYARVFNTESALVRPHFVNGTHALGAALFGNLRPGNTMLSVCGEPYDTLHDVIGITENSNMGSLKEFGINYKQVDLKEDGKPNLEEIEKVLKEDESITLVHIQRSTGYGWRRALLIEDIKSIVDCVKNIRKDIICFVDNCYGEFMDTKEPTDVGADLIAGSLIKNIGGGIAPTGGYLAGTKDCIEKTSYRLTVPGIGGECGSTFGVVRSMYQGLFLAPHISMEALKGAILCSRIMELAGFEVMPKYDEKRSDIIQSIKFNDKDKLIEFCKGIQTGSPIDSFVSCEPWDMPGYTDQVIMAAGAFIQGSSIELSADAPIREPYIAYLQGGLTFDHAKIGILIALSRIVK | soluble
18 | GMNPENWLLLRRVVRFGDTDAAGVMHFHQLFRWCHESWEESLESYGLNPADIFPGSRKSEVTPEVALPIIHCQADFRRPIHTGDALAMELRPERLNPNSFQVHFEFRCEEQIAAHALIRHLAINAQTRHRCALPEGIDRWLEASGVGKIGSI | soluble
19 | GMNQSIIFTEQLTWDVQLSAIHFTAQQQGMVIDCYIGQKVLEHLAAEKINNSEQALSLFEQFRFDIEEQAEKLIEQEAFDVQGHIQVERVD | soluble
20 | GMPENTAMAALLPEESLFFRELVKQWRAQDSYGTWEKKSDMELLAPYVLDKEQRRAIPIIGDPDPEILWRVELFYNAVGLATERASGVMVSPMMKMSHEGFGRMVLIAGRLIVVNKQLRDVHRFGFPSMEKLAEEGDKLVAGALEMIEKFPEVARF | soluble
21 | GMPIIIDKDLPARKVLQEENIFVMTKERAETQDIRALKIAILNLMPTKQETEAQLLRLIGNTPLQLDVHLLHMESHLSRNVAQEHLTSFYKTFRDIENEKFDGLIITGAPVETLSFEEVDYWEELKRIMEYSKTNVTSTLHICWGAQAGLYHHYGVQKYPLKEKMFGVFEHEVREQHVKLLQGFDELFFAPHSRHTEVRESDIREVKELTLLANSEEAGVHLVIGQEGRQVFALGHSEYSCDTLKQEYERDRDKGLNIDVPKNYFKHDNPNEKPLVRWRSHGNLLFSNWLNYYVYQETPYVL | soluble
22 | GMSDPAGKPCIICVAITGSLPTKENNPAVPITLAEQVESTHEAFEAGASIAHCHVRDDEGRPTSDPDRFAALKEGLERHCPGMIVQLSTGGRSGAGQARGAMLPLCPDMASLSVGSNNFPTRVYENPPDLVDWLAAEMLKYDIKPEIEAFDLSHILQAKRMAGDGRLAGTPYVQFVMGVRNAMPADRDVFDYYIHTVRRLFGEDAPWCAAGIGPSQIVLNEWAISSGGHARTGLEDNVRLDRDRLAPSNAALVGRAVELCEKYERPVATWRQARQILGLRMV | soluble
23 | GMSHVSYAEPPAQGWDIHCHTVFSDGTETPRTLVEQARKLGLHGVAIADHDTTAGWDEATEASEEIGLPLLLGTEITAVDEDVSVHMLAFQYDPSNEHISSMFANTRAARLRRTKRMVERLSQDFPITWDDVLAQVKEGERTTIGRPHIADALVAAGVYETRSDAFADAVSAKSKYYIPTPSPSTHEVIAAVKGAGGVVVAAHAGDPQRNRRLLSDEQLDAMIADGLDGLEVWHRGNPPEQRERLLTIAARHDLLVTGGSDWHGKGKPNGLGENLTDDDTVREILCRGVDLIGRVGSSHAA | soluble
